Measured values: patent US9340580B2, “Peptide with multiple epitopes” (priority 2007, dated 2016)
Where “and” joins values, the source holds several entries; their conditions need not be identical. Equal entries are not always repeated. Where two headings read alike, the source gives them in different places. Where a SMILES comes first, the peptide text is derived from it.

What was measured:
[1] = biological target: DRB1*1101 (Homo sapiens, UniProt P01903+P01911, A100R/A169T/A87E/I96F/K41T/L162R/M171V/P40S/Q125H/Q178H/Q39Y/Q99D/R42S/S66Y/T262R/V115G/W38E); experiment: competitive MHC class II binding assay; conditions: control peptide Influenza haemagglutinin 307-319
Text: (§1) This is a characteristic of promiscuous HLA-DRB1* binders.

[2] = biological target: DRB1*0701 (Homo sapiens, UniProt P01903+P01911, A100R/A102G/A103Q/D57E/D86V/E43K/F76Y/K127E/L162R/M171V/P40G/Q125H/Q99D/R33Q/R42Y/R54Q/S133A/S66F/T210M/V115G/Y107V/Y59L/Y89S); experiment: competitive MHC class II binding assay; conditions: control peptide Influenza haemagglutinin 307-319
Text: as §1

[3] = precipitation in the aqueous solution of the binding assay; format: physicochemical; conditions: read-out: Precipitation in assay: lowest concentration at which an insoluble white precipitate is seen
Text: as §1

[4] = solubility pre-screen in an aqueous, acidic milieu; format: physicochemical
[5] = biological target: DRB1*0401 (Homo sapiens, UniProt P01903+P01911, A100K/A169T/F76Y/I96L/K127E/L162R/M171V/N62H/P40V/Q125Y/R42H/S133A/S149N/S66Y/V115G/V209L/W38E); experiment: competitive MHC class II binding assay; conditions: control peptide Influenza haemagglutinin 307-319
Text: as §1

[6] = biological target: DQA1*0102/DQB1*0602 (Homo sapiens, UniProt P01909+P01920, A157G/A45G/C70R/E118A/E183D/E77G/F83G/G63E/H151Q/H199R/H252R/H253Q/I129T/I235V/I88M/INS77G/K197Q/L117V/L119F/L178F/L71W/L74F/L85Q/L91A/L98M/N214S/P87R/Q116E/Q76K/R102G/R240Q/R75S/R78G/S102Y/S185I/S41F/S97I/T121G/T122I/T172A/T86R/V229M/V68A/V73E/Y34C/Y41F/Y58L); experiment: competitive MHC class II binding assay; conditions: control peptide Human Insulin B 1-15
Procedure: as §1
In addition, to identify lower affinity binders, the assay was also carried out under less stringent conditions. All the Der p binding peptides were seen to have a high ratio when tested against this allotype, showing they were low affinity binders compared to the control peptide. The DQA1*0102/DQB1*0602 binding assay uses a peptide from the B-chain of human insulin which is of lower affinity compared to those used in the DR assays. This dictates that the DQ assay is very sensitive and tends to produce very low ratio values for the strongest binders to this MHC Class II allotype. This sensitivity also accounts for the relatively higher number of DQ binding peptides within the panel screened. Finally, on closer analysis, the peptides identified as ligands for the DRB1*0101,*0401, *0701 superfamily, are found to incorporate a motif that is characteristic of promiscuous binders to this family of allotypes where: P1=Y, F, W, L, I, V, or M (Large aromatic or hydrophobic residue), P6=S, T, C, A, P, V, I, M (small, non-charged residue)

[7] = test system: human MHC class II allotypes; experiment: competitive MHC class II binding assay, statements over the panel; conditions: peptides of reduced purity
Text: as §1
This is of significance as purities were seen to vary from 60-90%. This would have a considerable effect on the ability of a peptide to compete if it is relatively impure. […] Therefore, if purity is taken into consideration, they may in fact have an equivalent affinity to a peptide of a higher purity.

[8] = biological target: T1, human MHC class II allotype HLA-DRB1*0101 (human); experiment: competitive MHC class II binding assay; competitor control peptide influenza haemagglutinin 307-319;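 note: each test peptide was scored on how well it displaces the known control binder from each human MHC class II allotype studied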
T1 construct: Source and construct of the MHC protein in the assay are not described

[9] = biological target: T2, human MHC class II allotype HLA-DRB1*1101 (human); experiment: as above
T2 construct: Source and construct of the MHC protein in the assay are not described

[10] = biological target: T3, human MHC class II allotype HLA-DRB1*0401 (human); experiment: as above
T3 construct: Source and construct of the MHC protein in the assay are not described

[11] = biological target: T4, human MHC class II allotype HLA-DRB1*1501 (human); experiment: competitive MHC class II binding assay; competitor control peptide myelin basic protein 85-99
T4 construct: Source and construct of the MHC protein in the assay are not described

[12] = biological target: T5, human MHC class II allotype DQA1*0102/DQB1*0602 (human, UniProt P01920 33-230, limits assumed); experiment: competitive MHC class II binding assay; competitor control peptide human insulin B 1-15
T5 construct: Source and construct of the MHC protein in the assay are not described
T5 MHC II alpha: not shown
T5 MHC II beta: not shown

[13] = biological target: T6, human MHC class II allotype HLA-DRB1*0701 (human); experiment: competitive MHC class II binding assay; competitor control peptide influenza haemagglutinin 307-319;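 note: each test peptide was scored on how well it displaces the known control binder from each human MHC class II allotype studied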
T6 construct: Source and construct of the MHC protein in the assay are not described

[14] = biological target: T7, human MHC class II allotype HLA-DRB1*1101 (human)
T7 chain 1: not shown
T7 chain 2: not shown

[15] = biological target: T8, human MHC class II allotype DQA1*0102/DQB1*0602 (human), P01920
T8 chain 1: not shown
T8 chain 2: not shown

[16] = biological target: T9, human MHC class II allotype HLA-DRB1*0701 (human)
T9 chain 1: not shown
T9 chain 2: not shown

[17] = biological target: T10, human MHC class II allotype HLA-DRB1*1501 (human)
T10 chain 1: not shown
T10 chain 2: not shown

[18] = biological target: T11, human MHC class II allotype HLA-DRB1*1301 (human); experiment: competitive MHC class II binding assay; competitor control peptide HLA-DQB1*0603 21-36
T11 construct: Source and construct of the MHC protein in the assay are not described

[19] = biological target: T12, human MHC class II allotype HLA-DRB1*0301 (human); experiment: competitive MHC class II binding assay; competitor control peptide hsp 65 2-16
T12 construct: Source and construct of the MHC protein in the assay are not described

[20] = biological target: T4, human MHC class II allotype …; experiment: competitive MHC class II binding assay, high stringency screen; competitor control peptide myelin basic protein 85-99

## CSCC[C@H](NC(=O)[C@H](CO)NC(=O)[C@@H](N)C(C)C)C(=O)N[C@@H](CCC(=O)O)C(=O)N[C@@H](Cc1ccc(O)cc1)C(=O)N[C@@H](CC(=O)O)C(=O)N[C@@H](CC(C)C)C(=O)N[C@@H](C)C(=O)N[C@@H](Cc1ccc(O)cc1)C(=O)N[C@@H](CCCCN)C(=O)N[C@@H](CC(C)C)C(=O)NCC(=O)N[C@@H](CC(=O)O)C(=O)N[C@@H](CC(C)C)C(=O)N[C@@H](Cc1c[nH]cn1)C(=O)O [HDM40A] (H-VSMEYDLAYKLGDLH-OH; N-terminus and C-terminus assumed)
[1]
  relative binding: ratio of peptide IC50 to control peptide IC50, DRB1*1101: 6
[2]
  relative binding: ratio of peptide IC50 to control peptide IC50, DRB1*0701: 2.29
[3]
  solubility: 1000 µM and 1800 µg/mL
[4]
  Solubility test: YES

## CSCC[C@H](NC(=O)[C@H](CO)NC(=O)[C@@H](NC(=O)[C@@H](NC(=O)[C@H](CC(=O)O)NC(=O)[C@H](CC(=O)O)NC(=O)[C@@H](N)Cc1c[nH]cn1)C(C)C)C(C)C)C(=O)N[C@@H](CCC(=O)O)C(=O)N[C@@H](Cc1ccc(O)cc1)C(=O)N[C@@H](CC(=O)O)C(=O)N[C@@H](CC(C)C)C(=O)N[C@@H](C)C(=O)N[C@@H](Cc1ccc(O)cc1)C(=O)N[C@@H](CCCCN)C(=O)N[C@@H](CC(C)C)C(=O)O [HDM39A] (H-HDDVVSMEYDLAYKL-OH; N-terminus and C-terminus assumed)
[5]
  relative binding: ratio of peptide IC50 to control peptide IC50, DRB1*0401: 76.19
[2]
  relative binding: ratio of peptide IC50 to control peptide IC50, DRB1*0701: 0.71
[3]
  solubility: 1000 µM and 1800 µg/mL
[6]
  relative binding: ratio of peptide IC50 to control peptide IC50, DQA1*0102 DQB1*0602: 0.1
[4]
  Solubility test: YES

## DGLEVDVPGIDPNACH (listed as Dermatophagoides pteronyssinus) [HDM23A]
[7]
  binding affinity in the competition assay (in words): low affinity binding
[4]
  Solubility test: YES

## KPFQLEAVFEANQNTK (Synthetic peptide, 90.1% purity) [HDM21A]
[8]
  ratio of its own IC50 to that of the control peptide: 200
[9]
  ratio of its own IC50 to that of the control peptide: 10.3
[10]
  ratio of its own IC50 to that of the control peptide: 52.2

## DTVRAEMTKVLAP (Synthetic peptide, 69.5% purity) [HDM49]
[11]
  ratio of its own IC50 to that of the control peptide: 671
[12]
  ratio of its own IC50 to that of the control peptide: 1.7

## RYVAREQSCRRPN (Synthetic peptide, 79.7% purity) [HDM06]
[9]
  ratio of its own IC50 to that of the control peptide: 30.4
[12]
  ratio of its own IC50 to that of the control peptide: 0.86

## RTVTPIRMQGGCG (Synthetic peptide, 79.6% purity) [HDM02]
[11]
  ratio of its own IC50 to that of the control peptide: 80
[12]
  ratio of its own IC50 to that of the control peptide: 0.03

## REALAQTHSAIAVI (Synthetic peptide, 69.6% purity) [HDM09A]
[11]
  ratio of its own IC50 to that of the control peptide: 200
[13]
  ratio of its own IC50 to that of the control peptide: 0.49
[9]
  ratio of its own IC50 to that of the control peptide: 21.1

## CIIHRGKPFQLEA (modifications not checked) [HDM20]
[14]
  ratio of its own IC50 to that of the control peptide: 28
[15]
  ratio of its own IC50 to that of the control peptide: 2.37
[16]
  ratio of its own IC50 to that of the control peptide: 1.1
[17]
  ratio of its own IC50 to that of the control peptide: 242

## RNIQVRGLKQMKRVG (Synthetic peptide, 74.7% purity) [HDM34]
[18]
  ratio of its own IC50 to that of the control peptide: 3.7
[11]
  ratio of its own IC50 to that of the control peptide: 769
[9]
  ratio of its own IC50 to that of the control peptide: 3.38

## TAIFQDTVRAEMTK (Synthetic peptide, 79.1% purity) [HDM48]
[13]
  ratio of its own IC50 to that of the control peptide: 15.7
[9]
  ratio of its own IC50 to that of the control peptide: 13.6
[19]
  ratio of its own IC50 to that of the control peptide: 211

## LDMRNIQVRGLKQ (Synthetic peptide, 70.3% purity) [HDM33]
[18]
  ratio of its own IC50 to that of the control peptide: 263
[13]
  ratio of its own IC50 to that of the control peptide: 46.5
[9]
  ratio of its own IC50 to that of the control peptide: 41.5

B1: Fel d 1 peptide EQVAQYKALPVVLENA (peptide)
peptide: EQVAQYKALPVVLENA
notes: Said to have been tested in an earlier study
[20]
  ratio of its own IC50 to that of the control peptide: 0.97

## RNQSLDLAEQELVDCASQH (Synthetic peptide, 60.1% purity) [HDM03C]
[12]
  ratio of its own IC50 to that of the control peptide: 0.16

## KPFQLEAVFEANQNT (Synthetic peptide, 88.7% purity) [HDM21]
[8]
  ratio of its own IC50 to that of the control peptide: 92
[9]
  ratio of its own IC50 to that of the control peptide: 11.7
[10]
  ratio of its own IC50 to that of the control peptide: 11.2

## IDLRQMRTVTPIR (Synthetic peptide, 79.2% purity) [HDM01]
[13]
  ratio of its own IC50 to that of the control peptide: 16
[19]
  ratio of its own IC50 to that of the control peptide: 19.2

## VSMEYDLAYKLGDLH (Synthetic peptide, 66.9% purity) [HDM40A]
[13]
  ratio of its own IC50 to that of the control peptide: 2.29
[9]
  ratio of its own IC50 to that of the control peptide: 6

## DGVLACAIATHAKIR (Synthetic peptide) [HDM26A]
[13]
  ratio of its own IC50 to that of the control peptide: 16.3
[8]
  ratio of its own IC50 to that of the control peptide: 42.3
[12]
  ratio of its own IC50 to that of the control peptide: 0.61

## DGLEVDVPGIDPNACH (Synthetic peptide, 66.7% purity) [HDM23A]
[19]
  ratio of its own IC50 to that of the control peptide: 347
[12]
  ratio of its own IC50 to that of the control peptide: 0.76

## EAVFEANQNTKTAK (Synthetic peptide, 90.3% purity) [HDM22A]
[9]
  ratio of its own IC50 to that of the control peptide: 80
[10]
  ratio of its own IC50 to that of the control peptide: 329

## RGKPFQLEAVFEANQNT (Synthetic peptide, 82.6% purity) [HDM21B]
[8]
  ratio of its own IC50 to that of the control peptide: 13.5
[9]
  ratio of its own IC50 to that of the control peptide: 4.1
[10]
  ratio of its own IC50 to that of the control peptide: 0.78

## HDDVVSMEYDLAYKL (Synthetic peptide, 80.9% purity) [HDM39A]
[13]
  ratio of its own IC50 to that of the control peptide: 0.71
[10]
  ratio of its own IC50 to that of the control peptide: 76.2
[12]
  ratio of its own IC50 to that of the control peptide: 0.1
